Results published in patent US7271245B2, “Methods and compositions for inhibition of metastasis” (The Scripps Research Institute, priority 2004, dated 2007).

Experiments:
activated integrin αvβ3 = target: T1, activated integrin αvβ3 (Homo sapiens, UniProt P05106+P06756); assay: Flow cytometry, scFv binding to MDA-MB 435 variants and patient metastatic breast cancer cells
T1 construct: endogenous in cells; host or cells: MDA-MB 435 variants (Parent Combo, Bone, Lung) and patient blood-derived BMS cells; also β3-negative cells re-transfected with β3WT or β3D723R cDNA
T1 sequence (P06756 31-889 limits assumed): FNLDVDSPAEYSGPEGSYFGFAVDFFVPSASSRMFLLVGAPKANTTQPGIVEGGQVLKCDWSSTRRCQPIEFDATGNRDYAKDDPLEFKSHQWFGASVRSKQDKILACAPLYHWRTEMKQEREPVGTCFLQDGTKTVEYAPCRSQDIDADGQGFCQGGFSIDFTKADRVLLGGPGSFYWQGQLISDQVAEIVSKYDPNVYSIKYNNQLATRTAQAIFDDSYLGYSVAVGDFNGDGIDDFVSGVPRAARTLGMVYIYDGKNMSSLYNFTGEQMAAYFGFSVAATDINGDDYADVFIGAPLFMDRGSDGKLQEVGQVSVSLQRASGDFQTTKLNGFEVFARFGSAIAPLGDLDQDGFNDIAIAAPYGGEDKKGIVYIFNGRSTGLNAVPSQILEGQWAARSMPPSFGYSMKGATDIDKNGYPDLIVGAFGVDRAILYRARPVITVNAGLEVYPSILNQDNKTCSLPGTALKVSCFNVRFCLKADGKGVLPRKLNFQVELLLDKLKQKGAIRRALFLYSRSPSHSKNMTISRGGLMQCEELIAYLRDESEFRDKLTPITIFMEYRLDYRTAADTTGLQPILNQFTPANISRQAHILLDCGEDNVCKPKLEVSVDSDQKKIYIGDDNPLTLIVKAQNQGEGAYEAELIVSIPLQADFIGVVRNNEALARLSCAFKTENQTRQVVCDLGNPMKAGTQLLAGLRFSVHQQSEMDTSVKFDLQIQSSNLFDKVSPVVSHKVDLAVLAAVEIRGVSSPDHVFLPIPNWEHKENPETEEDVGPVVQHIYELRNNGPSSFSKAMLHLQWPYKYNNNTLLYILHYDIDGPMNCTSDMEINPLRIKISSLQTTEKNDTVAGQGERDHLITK
T1 sequence (P06756 891-1048 limits assumed): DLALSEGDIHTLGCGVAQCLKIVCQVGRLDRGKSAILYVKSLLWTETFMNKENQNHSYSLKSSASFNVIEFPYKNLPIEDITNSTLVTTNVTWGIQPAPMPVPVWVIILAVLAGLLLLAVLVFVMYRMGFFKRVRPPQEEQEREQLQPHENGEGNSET
T1 sequence (P05106 27-788): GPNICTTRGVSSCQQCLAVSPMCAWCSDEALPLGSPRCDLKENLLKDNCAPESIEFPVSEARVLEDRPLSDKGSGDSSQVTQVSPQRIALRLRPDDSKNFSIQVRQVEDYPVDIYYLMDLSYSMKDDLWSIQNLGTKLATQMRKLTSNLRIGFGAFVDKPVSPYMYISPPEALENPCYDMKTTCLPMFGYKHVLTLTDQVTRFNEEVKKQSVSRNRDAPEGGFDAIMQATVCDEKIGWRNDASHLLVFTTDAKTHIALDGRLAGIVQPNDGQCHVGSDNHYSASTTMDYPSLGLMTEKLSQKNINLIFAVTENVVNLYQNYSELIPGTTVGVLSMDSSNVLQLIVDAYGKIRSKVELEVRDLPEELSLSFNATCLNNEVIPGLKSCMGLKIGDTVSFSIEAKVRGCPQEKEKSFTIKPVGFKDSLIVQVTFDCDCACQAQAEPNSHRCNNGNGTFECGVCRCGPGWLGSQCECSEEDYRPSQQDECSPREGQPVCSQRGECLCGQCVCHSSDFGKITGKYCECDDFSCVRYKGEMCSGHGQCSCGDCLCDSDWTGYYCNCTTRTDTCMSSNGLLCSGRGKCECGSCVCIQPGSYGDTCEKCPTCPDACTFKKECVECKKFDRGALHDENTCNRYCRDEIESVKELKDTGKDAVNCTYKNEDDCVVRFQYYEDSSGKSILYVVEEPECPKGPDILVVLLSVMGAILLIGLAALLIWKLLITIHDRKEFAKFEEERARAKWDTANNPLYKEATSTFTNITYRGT
Procedure: FIGS. 1A, 1B, 1C. Patient derived scFvs Bc-12 and Bc-15 recognize tumor cell integrin αvβ3 in a cation and activation dependent manner. Flow cytometric analyses in TBS with or without 1 mM Ca^2+, 1 mM Mg^2+, or 0.2 mM Mn^2+ as indicated. Binding of soluble scFv detected after incubation with anti-Flag M2 murine mAb followed by FITC-anti mouse F(ab′)2. (A) scFv binding to human melanoma cells (M21: αvβ3 plus other αv integrins) (M21-LIIb: αIIbβ3, no αv integrins) or lung adenocarcinoma cells (UCLA-P3: αv integrins, no β3 integrin). (B) scFv binding to M21 melanoma cells. (C) scFv binding to variants of MDA-MB 435 human breast cancer cells that lack (β^3−) or express αvβ3 either in a non-activated (β3WT, ParentCo) or activated form (β3D723R, Bone, Lung, and BMS metastatic cancer cells isolated from breast cancer patient blood).
FIGS. 2A, 2B, 2C, 2D. Translation of scFv DNA sequence analyses. (A) Consensus amino acid sequence (SEQ ID NO: 9) of Bc-12 (SEQ ID NO: 7) and Bc-15 (SEQ ID NO: 8) (specific for activated αvβ3) compared to Bc-20 (specific for αv) (SEQ ID NO: 10). (B) scFv binding to BMS human breast cancer cells by flow cytometry, indicating loss of Bc-12 and Bc-15 binding when CDR-H3 RGD is mutated to RGE (Mut-12 and Mut-15). […] (C) cDNA sequences for scFv Bc-12 (SEQ ID NO: 1) and scFv Bc-15 (SEQ ID NO: 3). The cDNA encoding scFv Bc-12 has an ATCC accession number PTA-6303, date of deposit: Nov. 12, 2004. The cDNA encoding scFv Bc-15 has an ATCC accession number PTA-6304, date of deposit: Nov. 12, 2004. (D) cDNA sequences for scFv Mut-12 (SEQ ID NO: 5) and scFv Mut-15 (SEQ ID NO: 6). scFv Mut-12 is the RGE containing mutant version of scFv Bc-12. scFv Mut-15 is the RGE containing mutant version of scFv Bc-15.
Flow cytometry. scFv binding to human tumor cells was analyzed by flow cytometry, initially with cloned scFv phage and then with purified scFv protein. Per sample, 2×10^5 tumor cells were blocked with goat serum and incubated either with scFv phage (2-5×10^10) (1 h at RT) followed by mouse anti-M13 mAb (Serotec) (30 min on ice) and goat FITC-anti mouse (Pierce) (30 min on ice), or with purified scFv (1.25 to 40 μg/ml, routinely 10 to 15 μg/ml) (45 min on ice), followed by mouse anti-FLAG mAb M2 (Sigma) (30 min on ice) and goat FITC-anti mouse. Binding/washing buffer was TBS with or without divalent cations (1 mM Ca^2+, 1 mM Mg^2+, 0.2 mM Mn^2+). Alternatively, tumor cells were washed in 10 ml of plasma (prepared freshly from human blood anticoagulated with 50 nM D-Phe-D-Pro-D-arginyl chloromethyl ketone, PPACK, Felding-Habermann et al., J. Biol. Chem. 271: 5892-5900, 1996), resuspended in plasma and then incubated sequentially, without washing, with purified scFv (45 min on ice), followed by anti-FLAG M2 (30 min on ice) and FITC-anti mouse (30 min on ice). All samples were counter stained with propidium iodide (PI) and analyzed on a Becton-Dickinson FACScan, with live gate set to exclude PI positive cells.
To test this further, the effects of cation combinations on Bc-12 and Bc-15 binding were examined. […] Smith, Methods Cell Biol. 69: 247-259, 2002; Hughes et al., J. Biol. Chem. 271: 6571-6574, 1996. To confirm that scFv Bc-12 and Bc-15 selectively recognize αvβ3 in its activated form, binding of these antibodies to in vitro generated and in vivo selected variants of the MDA-MB 435 breast cancer cell model was tested. […] In contrast, Bc-12 and Bc-15 were able to bind an MDA-MB 435 variant expressing constitutively activated mutant αvβ3D723R, without exogenous stimulation with Mn^2+. […] Importantly, scFvs Bc-12 and Bc-15 recognized in vivo selected MDA-MB 435 variants from bone and lung metastases, as well as metastatic cells isolated from breast cancer patient blood samples (FIG. 1C). These cells express αvβ3 in a constitutively activated form. Felding-Habermann et al., Proc. Natl. Acad. Sci. U.S.A 98: 1853-1858, 2001; Rolli et al., Proc. Natl. Acad. Sci. U.S.A 100: 9482-9487, 2003.

[1] = test system: human breast cancer cell lines, isolated from patient blood samples; assay: Growth of breast cancer cell cultures in presence of scFv; assay type: cell-based; conditions: 2 μM scFv, 4 days after seeding

recognition of in vivo selected MDA-MB 435 variants from bone and lung metastases (activated integrin αvβ3; constitutively activated αvβ3) | recognition of metastatic cells isolated from breast cancer patient blood samples (activated integrin αvβ3; constitutively activated αvβ3) | binding to MDA-MB 435 Parent Combo cells (activated integrin αvβ3; non-activated αvβ3) | binding to β3 wild type expressing MDA-MB 435 cells (activated integrin αvβ3; β3WT, non-activated αvβ3, without Mn^2+) | binding to β3 wild type expressing MDA-MB 435 cells with Mn2+ (activated integrin αvβ3; β3WT, with Mn^2+) | binding of RGE mutated scFv to human breast cancer cells (activated integrin αvβ3; BMS cells, compared with parent RGD scFv) | Molecule | growth of breast cancer cell lines [1]
recognized | recognized | same Mn^2+ dependence | failed to bind | recognized when activated with Mn^2+ | – | Bc-12: patient derived human scFv antibody against activated αvβ3 with RGD motif in CDR-H3; cDNA ATCC PTA-6303 (protein) scFv: MAQVQLVQSGAEVKKPGASVKVSCKASGYTFSNYGITWVRQAPGQGLEWMGWINNGNTHYAQKFQGRVTMTTDTSTSTAYMELRSLRSDDTAVYYCARDPRGDDEPYWGQGTLVTVSSGGGGSGGGGSGGGGSEIVLTQSPLSLPVTLGQPASISCRSSQNLVYSDGNTYLSWFQQRPGQSPRRLIYKVSNRDSGVPDRFSGSGSGTDFTLKISRVEAEDIGVYYCMQGTHWPPRTFGQGTKVEIKRGLGGLVDYKDDDDK | retarded
– | – | – | – | – | strongly reduced | Mut-12: RGE containing mutant version of scFv Bc-12 (protein) MAQVQLVQSGAEVKKPGASVKVSCKASGYTFSNYGITWVRQAPGQGLEWMGWINNGNTHYAQKFQGRVTMTTDTSTSTAYMELRSLRSDDTAVYYCARDPRGEDEPYWGQGTLVTVSSGGGGSGGGGSGGGGSEIVLTQSPLSLPVTLGQPASISCRSSQNLVYSDGNTYLSWFQQRPGQSPRRLIYKVSNRDSGVPDRFSGSGSGTDFTLKISRVEAEDIGVYYCMQGTHWPPRTFGQGTKVEIKRGLGGLVDYKDDDDK | no effect
